Reference: patent US20210388110A1 (published 2021)

Molecular target: T1, soluble human GPC3 (human, UniProt P51654 25-563, limits assumed)
T1 construct: also called glypican 3
Assay: SPR (Biacore), single-arm antibody, soluble human GPC3

T1 sequence (P51654 other isoform, or with tags, fused parts or gaps limits assumed, form in doubt): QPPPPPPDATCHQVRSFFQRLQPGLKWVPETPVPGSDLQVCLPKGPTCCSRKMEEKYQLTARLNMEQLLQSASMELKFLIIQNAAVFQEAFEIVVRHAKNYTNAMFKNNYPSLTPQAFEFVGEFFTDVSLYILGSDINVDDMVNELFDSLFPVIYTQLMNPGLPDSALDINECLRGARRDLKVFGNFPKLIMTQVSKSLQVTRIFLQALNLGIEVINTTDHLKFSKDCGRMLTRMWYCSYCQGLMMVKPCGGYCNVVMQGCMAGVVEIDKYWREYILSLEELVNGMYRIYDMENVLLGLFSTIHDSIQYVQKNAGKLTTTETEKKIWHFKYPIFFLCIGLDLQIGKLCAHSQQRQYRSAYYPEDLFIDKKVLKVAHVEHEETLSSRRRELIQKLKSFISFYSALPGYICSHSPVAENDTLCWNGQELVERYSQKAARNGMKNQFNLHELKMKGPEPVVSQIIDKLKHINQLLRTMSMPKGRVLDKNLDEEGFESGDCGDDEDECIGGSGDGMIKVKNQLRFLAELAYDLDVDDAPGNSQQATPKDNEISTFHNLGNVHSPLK

Row | Binder | Kd [nM]
1 | H0610-G1dh/none-Hi-Kn010G3/L0046-k0 (antibody, human IgG1, kappa, single-arm antibody) heavy: not shown EPKSSDKTHTCPPCPAPELLGGPSVFLFPPKPKDTLMISRTPEVTCVVVDVSHEDPEVKFNWYVDGVEVHNAKTKPREEQYNSTYRVVSVLTVLHQDWLNGKEYKCKVSNKALPAPIEKTISKAKGQPREPQVCTLPPSRDELTKNQVSLWCLVKGFYPSDIAVEWESNGQPENNYKTTPPVLDSDGSFFLYSKLTVDKSRWQQGNVFSCSVMHEALHNRYTQKSLSLSP light: DIVMTQSPLSLPVTPGEPASISCRSSQSLVHVNRNTYLHWYQQKPGQAPRLLIYKVSNRFSGVPDRFSGSGSGTDFTLKISRVEAEDVGVYYCGQGTQVPYTFGQGTKLEIKRTVAAPSVFIFPPSDEQLKSGTASVVCLLNNFYPREAKVQWKVDNALQSGNSQESVTEQDSKDSTYSLSSTLTLSKADYEKHKVYACEVTHQGLSSPVTKSFNRGEC | 5.45
2 | H0610-G1dh/none-Hi-Kn010G3/L0062-k0 (antibody, human IgG1, kappa, single-arm antibody) heavy: not shown EPKSSDKTHTCPPCPAPELLGGPSVFLFPPKPKDTLMISRTPEVTCVVVDVSHEDPEVKFNWYVDGVEVHNAKTKPREEQYNSTYRVVSVLTVLHQDWLNGKEYKCKVSNKALPAPIEKTISKAKGQPREPQVCTLPPSRDELTKNQVSLWCLVKGFYPSDIAVEWESNGQPENNYKTTPPVLDSDGSFFLYSKLTVDKSRWQQGNVFSCSVMHEALHNRYTQKSLSLSP light: DIVMTQSPLSLPVTPGEPASISCRSSQSLVHSNRDTYLHWYQQKPGQAPRLLIYKVSNRFSGVPDRFSGSGSGTDFTLKISRVEAEDVGVYYCGQGTQVPYTFGQGTKLEIKRTVAAPSVFIFPPSDEQLKSGTASVVCLLNNFYPREAKVQWKVDNALQSGNSQESVTEQDSKDSTYSLSSTLTLSKADYEKHKVYACEVTHQGLSSPVTKSFNRGEC | 5.28
3 | H0610-G1dh/none-Hi-Kn010G3/L0063-k0 (antibody, human IgG1, kappa, single-arm antibody) heavy: not shown EPKSSDKTHTCPPCPAPELLGGPSVFLFPPKPKDTLMISRTPEVTCVVVDVSHEDPEVKFNWYVDGVEVHNAKTKPREEQYNSTYRVVSVLTVLHQDWLNGKEYKCKVSNKALPAPIEKTISKAKGQPREPQVCTLPPSRDELTKNQVSLWCLVKGFYPSDIAVEWESNGQPENNYKTTPPVLDSDGSFFLYSKLTVDKSRWQQGNVFSCSVMHEALHNRYTQKSLSLSP light: DIVMTQSPLSLPVTPGEPASISCRSSQSLVHSNRETYLHWYQQKPGQAPRLLIYKVSNRFSGVPDRFSGSGSGTDFTLKISRVEAEDVGVYYCGQGTQVPYTFGQGTKLEIKRTVAAPSVFIFPPSDEQLKSGTASVVCLLNNFYPREAKVQWKVDNALQSGNSQESVTEQDSKDSTYSLSSTLTLSKADYEKHKVYACEVTHQGLSSPVTKSFNRGEC | 6.03
4 | H0610-G1dh/none-Hi-Kn010G3/L0069-k0 (antibody, human IgG1, kappa, single-arm antibody) heavy: not shown EPKSSDKTHTCPPCPAPELLGGPSVFLFPPKPKDTLMISRTPEVTCVVVDVSHEDPEVKFNWYVDGVEVHNAKTKPREEQYNSTYRVVSVLTVLHQDWLNGKEYKCKVSNKALPAPIEKTISKAKGQPREPQVCTLPPSRDELTKNQVSLWCLVKGFYPSDIAVEWESNGQPENNYKTTPPVLDSDGSFFLYSKLTVDKSRWQQGNVFSCSVMHEALHNRYTQKSLSLSP light: DIVMTQSPLSLPVTPGEPASISCRSSQSLVHSNRMTYLHWYQQKPGQAPRLLIYKVSNRFSGVPDRFSGSGSGTDFTLKISRVEAEDVGVYYCGQGTQVPYTFGQGTKLEIKRTVAAPSVFIFPPSDEQLKSGTASVVCLLNNFYPREAKVQWKVDNALQSGNSQESVTEQDSKDSTYSLSSTLTLSKADYEKHKVYACEVTHQGLSSPVTKSFNRGEC | 5.32
5 | H0610-G1dh/none-Hi-Kn010G3/L0089-k0 (antibody, human IgG1, kappa, single-arm antibody) heavy: not shown EPKSSDKTHTCPPCPAPELLGGPSVFLFPPKPKDTLMISRTPEVTCVVVDVSHEDPEVKFNWYVDGVEVHNAKTKPREEQYNSTYRVVSVLTVLHQDWLNGKEYKCKVSNKALPAPIEKTISKAKGQPREPQVCTLPPSRDELTKNQVSLWCLVKGFYPSDIAVEWESNGQPENNYKTTPPVLDSDGSFFLYSKLTVDKSRWQQGNVFSCSVMHEALHNRYTQKSLSLSP light: DIVMTQSPLSLPVTPGEPASISCRSSQSLVHSNRNTYLLWYQQKPGQAPRLLIYKVSNRFSGVPDRFSGSGSGTDFTLKISRVEAEDVGVYYCGQGTQVPYTFGQGTKLEIKRTVAAPSVFIFPPSDEQLKSGTASVVCLLNNFYPREAKVQWKVDNALQSGNSQESVTEQDSKDSTYSLSSTLTLSKADYEKHKVYACEVTHQGLSSPVTKSFNRGEC | 5.24
6 | H0610-G1dh/none-Hi-Kn010G3/L0091-k0 (antibody, human IgG1, kappa, single-arm antibody) heavy: not shown EPKSSDKTHTCPPCPAPELLGGPSVFLFPPKPKDTLMISRTPEVTCVVVDVSHEDPEVKFNWYVDGVEVHNAKTKPREEQYNSTYRVVSVLTVLHQDWLNGKEYKCKVSNKALPAPIEKTISKAKGQPREPQVCTLPPSRDELTKNQVSLWCLVKGFYPSDIAVEWESNGQPENNYKTTPPVLDSDGSFFLYSKLTVDKSRWQQGNVFSCSVMHEALHNRYTQKSLSLSP light: DIVMTQSPLSLPVTPGEPASISCRSSQSLVHSNRNTYLNWYQQKPGQAPRLLIYKVSNRFSGVPDRFSGSGSGTDFTLKISRVEAEDVGVYYCGQGTQVPYTFGQGTKLEIKRTVAAPSVFIFPPSDEQLKSGTASVVCLLNNFYPREAKVQWKVDNALQSGNSQESVTEQDSKDSTYSLSSTLTLSKADYEKHKVYACEVTHQGLSSPVTKSFNRGEC | 5.43
7 | H0610-G1dh/none-Hi-Kn010G3/L0104-k0 (antibody, human IgG1, kappa, single-arm antibody) heavy: not shown EPKSSDKTHTCPPCPAPELLGGPSVFLFPPKPKDTLMISRTPEVTCVVVDVSHEDPEVKFNWYVDGVEVHNAKTKPREEQYNSTYRVVSVLTVLHQDWLNGKEYKCKVSNKALPAPIEKTISKAKGQPREPQVCTLPPSRDELTKNQVSLWCLVKGFYPSDIAVEWESNGQPENNYKTTPPVLDSDGSFFLYSKLTVDKSRWQQGNVFSCSVMHEALHNRYTQKSLSLSP light: DIVMTQSPLSLPVTPGEPASISCRSSQSLVHSNRNTYLHWYQQKPGQAPRLLIYKVSFRFSGVPDRFSGSGSGTDFTLKISRVEAEDVGVYYCGQGTQVPYTFGQGTKLEIKRTVAAPSVFIFPPSDEQLKSGTASVVCLLNNFYPREAKVQWKVDNALQSGNSQESVTEQDSKDSTYSLSSTLTLSKADYEKHKVYACEVTHQGLSSPVTKSFNRGEC | 5.9
8 | H0610-G1dh/none-Hi-Kn010G3/L0109-k0 (antibody, human IgG1, kappa, single-arm antibody) heavy: not shown EPKSSDKTHTCPPCPAPELLGGPSVFLFPPKPKDTLMISRTPEVTCVVVDVSHEDPEVKFNWYVDGVEVHNAKTKPREEQYNSTYRVVSVLTVLHQDWLNGKEYKCKVSNKALPAPIEKTISKAKGQPREPQVCTLPPSRDELTKNQVSLWCLVKGFYPSDIAVEWESNGQPENNYKTTPPVLDSDGSFFLYSKLTVDKSRWQQGNVFSCSVMHEALHNRYTQKSLSLSP light: DIVMTQSPLSLPVTPGEPASISCRSSQSLVHSNRNTYLHWYQQKPGQAPRLLIYKVSMRFSGVPDRFSGSGSGTDFTLKISRVEAEDVGVYYCGQGTQVPYTFGQGTKLEIKRTVAAPSVFIFPPSDEQLKSGTASVVCLLNNFYPREAKVQWKVDNALQSGNSQESVTEQDSKDSTYSLSSTLTLSKADYEKHKVYACEVTHQGLSSPVTKSFNRGEC | 5.7
9 | H0610-G1dh/none-Hi-Kn010G3/L0113-k0 (antibody, human IgG1, kappa, single-arm antibody) heavy: not shown EPKSSDKTHTCPPCPAPELLGGPSVFLFPPKPKDTLMISRTPEVTCVVVDVSHEDPEVKFNWYVDGVEVHNAKTKPREEQYNSTYRVVSVLTVLHQDWLNGKEYKCKVSNKALPAPIEKTISKAKGQPREPQVCTLPPSRDELTKNQVSLWCLVKGFYPSDIAVEWESNGQPENNYKTTPPVLDSDGSFFLYSKLTVDKSRWQQGNVFSCSVMHEALHNRYTQKSLSLSP light: DIVMTQSPLSLPVTPGEPASISCRSSQSLVHSNRNTYLHWYQQKPGQAPRLLIYKVSTRFSGVPDRFSGSGSGTDFTLKISRVEAEDVGVYYCGQGTQVPYTFGQGTKLEIKRTVAAPSVFIFPPSDEQLKSGTASVVCLLNNFYPREAKVQWKVDNALQSGNSQESVTEQDSKDSTYSLSSTLTLSKADYEKHKVYACEVTHQGLSSPVTKSFNRGEC | 4.82
